In test [1] the target is LFA-1 high affinity open mutant K287C/K294C (αL K287C/K294C with β2) (human) (UniProt P05107). Nature of the test: K562 cell adhesion to immobilized ICAM-1.
Test [2] has the same target. Kind of test: cell adhesion to immobilized ICAM-1.
Test [3] has as its target wild-type LFA-1 (αL/β2 complex) (human) (UniProt P05107). Kind of test: cell adhesion to immobilized ICAM-1.
For test [4] the target is unchanged. Kind of test: K562 (+CBRLFA-1/2) cell adhesion to immobilized ICAM-1.
Test [5] deals with LFA-1 high affinity open mutant K287C/K294C (αL K287C/K294C with β2) (human) (UniProt P05107). Nature of the test: 293T cell adhesion to immobilized ICAM-1.
Test [6] has as its target wild-type LFA-1 (αL/β2 complex) (human) (UniProt P05107). Nature of the test: 293T cell adhesion to immobilized ICAM-1.
Test [7] concerns the target LFA-1 high affinity open mutant K287C/K294C (αL K287C/K294C with β2) (human) (UniProt P05107). Nature of the test: flow cytometry, 293T; normalised to TS2/4. For orientation: In flow cytometry, cells or beads pass a laser one at a time.
Test [8] concerns the target LFA-1 low affinity closed mutant L289C/K294C (αL L289C/K294C with β2) (human) (UniProt P05107). Nature of the test: flow cytometry, 293T; normalised to TS2/4.
In test [9] the target is LFA-1 high affinity open mutant K287C/K294C (αL K287C/K294C with β2) (human) (UniProt P05107). Kind of test: flow cytometry, K562; normalised to TS2/4.
The target of test [10] is LFA-1 low affinity closed mutant L289C/K294C (αL L289C/K294C with β2) (human) (UniProt P05107). Kind of test: flow cytometry, K562; normalised to TS2/4.
Test [11] concerns the target LFA-1 single cysteine substitution mutant K287C (human) (UniProt P05107). Kind of test: flow cytometry, 293T; normalised to TS2/4.
The target of test [12] is LFA-1 single cysteine substitution mutant L289C (human) (UniProt P05107). Kind of test: flow cytometry, 293T; normalised to TS2/4.
Test [13] concerns the target LFA-1 single cysteine substitution mutant K294C (human) (UniProt P05107). Kind of test: flow cytometry, 293T; normalised to TS2/4.
The target of test [14] is ICAM-1 purified from human tonsil, immobilized (human) (UniProt P05362). Nature of the test: 293T K287C/K294C LFA-1 cell adhesion to immobilized ICAM-1.
ICAM-1 purified from human tonsil, immobilized (human), sequence (P05362 28-532 limits assumed, form in doubt): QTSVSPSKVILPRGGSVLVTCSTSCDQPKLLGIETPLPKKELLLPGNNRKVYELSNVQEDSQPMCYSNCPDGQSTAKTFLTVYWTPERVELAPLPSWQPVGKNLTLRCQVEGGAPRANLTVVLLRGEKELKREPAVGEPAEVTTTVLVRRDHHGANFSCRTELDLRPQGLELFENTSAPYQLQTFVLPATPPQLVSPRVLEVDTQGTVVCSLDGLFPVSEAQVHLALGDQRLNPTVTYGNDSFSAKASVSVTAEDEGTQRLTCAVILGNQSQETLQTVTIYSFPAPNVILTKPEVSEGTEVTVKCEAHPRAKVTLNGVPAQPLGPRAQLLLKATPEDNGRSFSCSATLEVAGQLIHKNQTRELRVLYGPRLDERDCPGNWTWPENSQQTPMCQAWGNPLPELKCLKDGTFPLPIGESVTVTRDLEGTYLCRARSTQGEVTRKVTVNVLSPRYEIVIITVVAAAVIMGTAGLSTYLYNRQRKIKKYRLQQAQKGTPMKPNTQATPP
Test [15] has the same target. Kind of test: 293T wild-type LFA-1 cell adhesion to immobilized ICAM-1.
The target of test [16] is iC3b coated on plastic (UniProt P01024). Kind of test: cell adhesion to immobilized iC3b; -DTT, -activation.
Test [17] shares this target. Kind of test: cell adhesion to immobilized iC3b; -DTT, +activation.
The target is the same in test [18]. Kind of test: cell adhesion to immobilized iC3b; +DTT, +activation.

The term % inhibition denotes the percentage by which the read-out fell short of the control. Low readings indicate a weak effect, high ones a strong effect. With “mouse anti-human αL (CD11a) monoclonal antibody TS1/11”, the % inhibition is 41.3% in test [1]; 40 to 60% in [2]; > 90% in [3]; 96.5% in test [4]; 45.2% in test [5]; 94.1% in test [6]. In addition, the % wild-type binding is 94.4% in test [7], 93.7% in test [8], 96% in test [9] and 105% in [10].

“mouse anti-human αL (CD11a) monoclonal antibody TS2/4”: the % inhibition in test [1] was found to be 2.82%; in test [4] it was 6.99%.

Take monoclonal antibody CLBLFA-1/1: the % inhibition was 6.69% in test [1], > 90% in [3] and 94.6% in test [4]. For the same substance, the % wild-type binding in [9] amounted to 96.5%; in test [10], 100%.

As to monoclonal antibody May.017, the % inhibition was 2.98% in [1], > 90% in test [3] and 97.8% in test [4].

Consider monoclonal antibody S6F1, for which the % inhibition in test [1] amounted to 9.7%; in [4], 6.19%. Moreover, the % wild-type binding came out at 89.4% in test [7]; 98.3% in [11]; 86.4% in [12]; 92.3% in [13]; 95.3% in test [8]; 97.4% in test [9]. For the same substance, the % wild-type binding in test [10] was determined as 85.7%.

In the case of monoclonal antibody RR1/1, the % inhibition in test [14] is 97.9%; in [15] it was 96%.

For mAb YFC51 (antibody), the % inhibition in test [1] is 0.08%; in test [3], > 90%; in test [4] it was 98.4%. Further, the % wild-type binding was determined as 103% in [7], 95.1% in test [8], 101% in [9] and 111% in test [10].

Consider “mouse anti-human αL (CD11a) monoclonal antibody TS1/22”, for which the % inhibition in [1] is 93.6%; in test [4], 96.9%; in test [5], 95.1%; in [6], 95.8%. For the same substance, the % wild-type binding in test [7] worked out at 95.8%; in test [11], 103%; in [12] it was 96.2%; in test [13], 92.2%; in [8], 91%; in test [9] it was 93.1%. For the same substance, in test [10], the % wild-type binding came out at 110%.

On to monoclonal antibody May.035, for which the % inhibition in [1] was 93.3%; in test [4] it was 95.8%; in test [5], 97.4%; in test [6] it was 96.2%. Moreover, the % wild-type binding stood at 92.6% in [7]; 95.8% in [11]; 95.4% in [12]; 106% in test [13]; 82.1% in [8]; 92.6% in [9]. The substance further had a % wild-type binding in test [10] of 101%.

Consider “anti-β2 (CD18) monoclonal antibody TS1/18”, for which the % inhibition in test [1] was 5.9%; in test [3], > 90%; in test [4], 98.5%. The % wild-type binding in test [7] is 99.8%; in test [11], 87.9%; in test [12] it was 87.3%; in [13], 108%; in test [8] it was 95.7%; in [9], 97.4%. The same substance came in with a % wild-type binding in test [10] of 106%.

As for monoclonal antibody F8.8, the % inhibition amounted to 98.2% in test [1], 97.6% in [4], 91.9% in [5] and 94.5% in test [6]. The % wild-type binding in test [7] came to 93.7%; in test [11], 95.9%; in test [12] it was 99.6%; in [13] it was 95.5%; in [8] it was 83.6%; in [9], 102%. This substance showed a % wild-type binding in [10] of 93.9%.

Consider “Mac-1 (αMβ2) mutant D294C/T307C (from UniProt P05107 23-769) (receptor)”, for which the percent of binding by activated wild type transfectant was in the range of 0 to 5% with iC3b coated on plastic [16] and 5 to 25% with iC3b coated on plastic [17].

“Mac-1 (αMβ2) mutant F297C/A304C (from UniProt P05107 23-769) (receptor)”: the percent of binding by activated wild type transfectant with iC3b coated on plastic [16] was 0 to 5%.

As for “anti-β2 (CD18) monoclonal antibody CBRLFA-1/7”, the % inhibition in test [1] is 5.77%; in [4], 5.04%. Moreover, the % wild-type binding in [7] worked out at 95.3%; in test [8], 91.7%; in test [9] it was 95.2%; in [10], 97.2%.

Turning to “mouse anti-human αL (CD11a) monoclonal antibody TS2/6”, the % inhibition in [1] stood at 88.1%; in test [4], 91.8%; in [5] it was 79.1%; in [6], 96.8%. The % wild-type binding in test [7] came out at 84.9%; in [11], 91.4%; in [12], 88.2%; in [13], 91.7%; in [8], 78.6%; in test [9] it was 89.2%. The substance further registered a % wild-type binding in [10] of 95.9%.

As to “mouse anti-human αL (CD11a) monoclonal antibody TS2/14”, the % inhibition in test [1] is 8.55%; in test [3], > 90%; in test [4] it was 96.2%; in [5], 2.95%; in test [6], 94.5%. Besides, the % wild-type binding in [7] came out at 85.5%; in test [11], 103%; in test [12], 100%; in test [13], 103%; in test [8] it was 83.3%; in [9] it was 95.4%. In test [10], this substance yielded a % wild-type binding of 103%.

For the substance monoclonal antibody 6.5E, the figures for the % inhibition in test [1], in test [3] and in test [4] were 5.79%, > 90% and 98.4%, respectively.

Regarding “mouse anti-human αL (CD11a) monoclonal antibody TS1/12”, the % inhibition was 63.7% in test [1]; 40 to 60% in test [2]; > 90% in test [3]; 97.5% in [4]; 49% in test [5]; 95.7% in test [6]. The % wild-type binding worked out at 88.7% in [7]; 99.3% in test [11]; 104% in test [12]; 93.7% in test [13]; 102% in test [8]; 87.3% in test [9]. Besides, the % wild-type binding in test [10] amounted to 106%.

Consider “Mac-1 (αMβ2) mutant Q163C/R313C (locked closed) (from UniProt P05107 23-769) (receptor)”, for which the percent of binding by activated wild type transfectant with iC3b coated on plastic [16] was in the range of 0 to 5%; in the test with iC3b coated on plastic [18], 50 to 75%; in the test with iC3b coated on plastic [17], 0 to 5%.

As for monoclonal antibody 25-3-1, the % inhibition in test [1] is 2.53%; in test [3], > 90%; in test [4] it was 92%; in test [5], 3.71%; in [6] it was 90.5%. For the same substance, the % wild-type binding in test [7] was 93.1%; in [8], 90.9%; in test [9], 88.5%; in [10] it was 85.7%.

With “Mac-1 (αMβ2) mutant Q298C/N301C (from UniProt P05107 23-769) (receptor)”, the percent of binding by activated wild type transfectant lay in the range of 0 to 5% with iC3b coated on plastic [16] and 5 to 25% with iC3b coated on plastic [17].

For the substance monoclonal antibody BL5, the % inhibition is 90.7% in [1], 97.5% in test [4], 91.1% in test [5] and 97% in test [6]. Also, the % wild-type binding in [7] was determined as 92.4%; in [11], 93.3%; in [12], 92.4%; in [13] it was 88.3%; in test [8] it was 85.8%; in [9] it was 92.4%. In addition, in test [10], the % wild-type binding amounted to 97.6%.

The record behind these values is US20020123614A1.
